Where no end group is shown, it is not given here. [ ]: non-standard residue; d: D form. Cha = N[C@@H](CC1CCCCC1)C(=O)O

From patent publication US20100081612A1 (GENERAL HOSPITAL, published 2010) come the findings set out here.

One experiment concerns the target PTHR-delNt (human) (UniProt Q03431). In words: competition binding, COS-7 membranes, 125I-[Aib1,3,M]PTH(1-15) tracer.
The target of experiment [1] is T1, wild-type human PTHR (human, UniProt Q03431 27-593).
T1 construct: whole, on cells; also called PTHR-WT; intact PTHR
T1 sequence (looked up): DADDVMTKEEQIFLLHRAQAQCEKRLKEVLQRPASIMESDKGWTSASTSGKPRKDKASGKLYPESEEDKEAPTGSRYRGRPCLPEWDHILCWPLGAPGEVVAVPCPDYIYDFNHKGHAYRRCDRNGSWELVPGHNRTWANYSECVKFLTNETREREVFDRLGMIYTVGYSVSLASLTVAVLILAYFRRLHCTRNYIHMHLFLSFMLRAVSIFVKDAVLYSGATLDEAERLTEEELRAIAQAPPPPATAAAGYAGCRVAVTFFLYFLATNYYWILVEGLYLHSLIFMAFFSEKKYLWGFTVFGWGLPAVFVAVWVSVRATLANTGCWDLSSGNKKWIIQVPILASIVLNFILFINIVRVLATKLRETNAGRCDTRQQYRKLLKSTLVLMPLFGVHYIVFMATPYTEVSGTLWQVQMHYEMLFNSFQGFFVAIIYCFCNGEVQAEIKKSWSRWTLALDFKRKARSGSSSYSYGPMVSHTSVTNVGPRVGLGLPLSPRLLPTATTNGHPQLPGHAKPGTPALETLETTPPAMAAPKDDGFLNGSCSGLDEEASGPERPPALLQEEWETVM
Nature of the experiment: competition binding, HKRK-B7 cells, 125I-PTH(1-34) tracer. The method, then: Receptor binding—Binding to the wild-type human PTHR in intact HKRK-B7 cells and ROS 17/2.8 cells was assessed using ¹²⁵I-PTH(1-34) as a tracer radioligand, as described (Shimizu, M., (2001) Endocrinology 142:3068-3074). In brief, the cells in 24-well plates (about 500,000 cells per well) were incubated in binding buffer containing radioligand (about 100,000 cpm per well) with or without unlabeled peptide ligand (3×10⁻⁹ to 1×10⁻⁵ M) for four hours at 15° C. The binding mixture was then removed by aspiration, the cells were rinsed three times with binding buffer, lysed in 1 M NaOH, and the entire lysate was counted for gamma-irradiation in a gamma counter. Binding to PTHR-delNt in COS-7 cell membranes was assessed in 96-well, vacuum filtration plates (Multiscreen-Durapore HV, […], Millipore Corp., Millford, Mass.) using ¹²⁵I-[Aib^{1,3},M]PTH(1-15)NH₂ as a tracer radioligand, as described (Dean, T., (2006) Mol Endocrinol 20:931-942). In brief, cell membranes (20 μg/well) were incubated in membrane binding buffer containing radioligand (30,000 cpm/well) with or without unlabeled peptide ligand (3×10⁻⁹ to 1×10⁻⁵ M) for 90 minutes at 21° C. The plates were then subject to rapid vacuum filtration, the filters were washed once with buffer, detached from the plate and counted for gamma-irradiation in a gamma counter. Non-specific binding was defined as the binding observed in the presence of 1×10⁻⁶ M PTH(1-31)NH₂ for HKRK-B7 and ROS 17/2.8 cells, and 1×10⁻⁶ M [Aib^{1,3},M]PTH(1-15)NH₂ for PTHR-delNt. Specifically bound radioactivity was calculated as a percentage of the radioactivity specifically bound in the absence of competing ligand.
Cyclohexylalanine and glutamate substitutions were introduced into [Ala¹,Arg¹⁹]hPTH(1-31)NH₂. The helical residue values were calculated from [θ]₂₂₂, the mean-residue elipticities observed in the CD spectra at 222 nm. Competition binding studies were performed in intact HKRK-B7 cells stably transfected with the hPTHR using ¹²⁵I-[Nle^{8,21},Tyr³⁴]rPTH(1-34)NH ₂ tracer radioligand, and in membranes prepared from COS-7 cells transiently transfected with hPTHR-delNt and a negative-dominant Gαs using ¹²⁵I-[Aib^{1,3},Nle⁸,Gln¹⁰,Har¹¹,Ala¹²,Trp¹⁴,Tyr¹⁵]rPTH(1-15)NH₂ tracer radioligand. Binding values (nM) are means (+/−s.e.m.) of data from the number of experiments indicated (n).

The target in experiment [2] is T1, wild-type human PTHR. The description is as above. The source holds these as a separate data set.

B1: [Ala^1,Arg^19]hPTH(1-31)NH2 Val^21→Cha (peptide)
peptide: AVSEIQLMHNLGKHLNSMRR[Cha]EWLRKKLQDV-NH2
modifications: N-terminus assumed
SMILES: CC[C@H](C)[C@H](NC(=O)[C@H](CCC(=O)O)NC(=O)[C@H](CO)NC(=O)[C@@H](NC(=O)[C@H](C)N)C(C)C)C(=O)N[C@@H](CCC(N)=O)C(=O)N[C@@H](CC(C)C)C(=O)N[C@@H](CCSC)C(=O)N[C@@H](Cc1c[nH]cn1)C(=O)N[C@@H](CC(N)=O)C(=O)N[C@@H](CC(C)C)C(=O)NCC(=O)N[C@@H](CCCCN)C(=O)N[C@@H](Cc1c[nH]cn1)C(=O)N[C@@H](CC(C)C)C(=O)N[C@@H](CC(N)=O)C(=O)N[C@@H](CO)C(=O)N[C@@H](CCSC)C(=O)N[C@@H](CCCNC(=N)N)C(=O)N[C@@H](CCCNC(=N)N)C(=O)N[C@@H](CC1CCCCC1)C(=O)N[C@@H](CCC(=O)O)C(=O)N[C@@H](Cc1c[nH]c2ccccc12)C(=O)N[C@@H](CC(C)C)C(=O)N[C@@H](CCCNC(=N)N)C(=O)N[C@@H](CCCCN)C(=O)N[C@@H](CCCCN)C(=O)N[C@@H](CC(C)C)C(=O)N[C@@H](CCC(N)=O)C(=O)N[C@@H](CC(=O)O)C(=O)N[C@H](C(N)=O)C(C)C
As to B1, the IC50 – broadly, the concentration that gives 50% inhibition – was found to be 564 nM with PTHR-delNt (human) and 74 nM in the experiment with wild-type human PTHR [1]. Moreover, the fold change in binding affinity vs [Ala^1,Arg^19]PTH(1-31)NH2 with PTHR-delNt (human) was less than 3 fold; with wild-type human PTHR [2], no more than 6 fold.

B2: [Ala^1,Arg^19]hPTH(1-31)NH2 Arg^19→Cha (peptide)
peptide: AVSEIQLMHNLGKHLNSM[Cha]RVEWLRKKLQDV-NH2
modifications: N-terminus assumed
SMILES: CC[C@H](C)[C@H](NC(=O)[C@H](CCC(=O)O)NC(=O)[C@H](CO)NC(=O)[C@@H](NC(=O)[C@H](C)N)C(C)C)C(=O)N[C@@H](CCC(N)=O)C(=O)N[C@@H](CC(C)C)C(=O)N[C@@H](CCSC)C(=O)N[C@@H](Cc1c[nH]cn1)C(=O)N[C@@H](CC(N)=O)C(=O)N[C@@H](CC(C)C)C(=O)NCC(=O)N[C@@H](CCCCN)C(=O)N[C@@H](Cc1c[nH]cn1)C(=O)N[C@@H](CC(C)C)C(=O)N[C@@H](CC(N)=O)C(=O)N[C@@H](CO)C(=O)N[C@@H](CCSC)C(=O)N[C@@H](CC1CCCCC1)C(=O)N[C@@H](CCCNC(=N)N)C(=O)N[C@H](C(=O)N[C@@H](CCC(=O)O)C(=O)N[C@@H](Cc1c[nH]c2ccccc12)C(=O)N[C@@H](CC(C)C)C(=O)N[C@@H](CCCNC(=N)N)C(=O)N[C@@H](CCCCN)C(=O)N[C@@H](CCCCN)C(=O)N[C@@H](CC(C)C)C(=O)N[C@@H](CCC(N)=O)C(=O)N[C@@H](CC(=O)O)C(=O)N[C@H](C(N)=O)C(C)C)C(C)C
Regarding B2, the IC50 with PTHR-delNt (human) came out at 780 nM; with wild-type human PTHR [1], 233 nM. The fold change in binding affinity vs [Ala^1,Arg^19]PTH(1-31)NH2 with PTHR-delNt (human) was less than 3 fold; with wild-type human PTHR [2] it was no more than 6 fold.

B3: [Ala^1,Arg^19]hPTH(1-31)NH2 Lys^27→Cha (peptide)
peptide: AVSEIQLMHNLGKHLNSMRRVEWLRK[Cha]LQDV-NH2
modifications: N-terminus assumed
SMILES: CC[C@H](C)[C@H](NC(=O)[C@H](CCC(=O)O)NC(=O)[C@H](CO)NC(=O)[C@@H](NC(=O)[C@H](C)N)C(C)C)C(=O)N[C@@H](CCC(N)=O)C(=O)N[C@@H](CC(C)C)C(=O)N[C@@H](CCSC)C(=O)N[C@@H](Cc1c[nH]cn1)C(=O)N[C@@H](CC(N)=O)C(=O)N[C@@H](CC(C)C)C(=O)NCC(=O)N[C@@H](CCCCN)C(=O)N[C@@H](Cc1c[nH]cn1)C(=O)N[C@@H](CC(C)C)C(=O)N[C@@H](CC(N)=O)C(=O)N[C@@H](CO)C(=O)N[C@@H](CCSC)C(=O)N[C@@H](CCCNC(=N)N)C(=O)N[C@@H](CCCNC(=N)N)C(=O)N[C@H](C(=O)N[C@@H](CCC(=O)O)C(=O)N[C@@H](Cc1c[nH]c2ccccc12)C(=O)N[C@@H](CC(C)C)C(=O)N[C@@H](CCCNC(=N)N)C(=O)N[C@@H](CCCCN)C(=O)N[C@@H](CC1CCCCC1)C(=O)N[C@@H](CC(C)C)C(=O)N[C@@H](CCC(N)=O)C(=O)N[C@@H](CC(=O)O)C(=O)N[C@H](C(N)=O)C(C)C)C(C)C
notes: also called Cha^27 analog
Regarding B3, the IC50 with PTHR-delNt (human) came to 629 nM; with wild-type human PTHR [1], 91 nM. Further, the results for the fold change in binding affinity vs [Ala^1,Arg^19]PTH(1-31)NH2 in the experiment with PTHR-delNt (human) and in the experiment with wild-type human PTHR [2] were less than 3 fold and no more than 6 fold, respectively.

B4: [Ala^1,Arg^19]hPTH(1-31)NH2 Glu^22→Cha (peptide)
peptide: AVSEIQLMHNLGKHLNSMRRV[Cha]WLRKKLQDV-NH2
modifications: N-terminus assumed
SMILES: CC[C@H](C)[C@H](NC(=O)[C@H](CCC(=O)O)NC(=O)[C@H](CO)NC(=O)[C@@H](NC(=O)[C@H](C)N)C(C)C)C(=O)N[C@@H](CCC(N)=O)C(=O)N[C@@H](CC(C)C)C(=O)N[C@@H](CCSC)C(=O)N[C@@H](Cc1c[nH]cn1)C(=O)N[C@@H](CC(N)=O)C(=O)N[C@@H](CC(C)C)C(=O)NCC(=O)N[C@@H](CCCCN)C(=O)N[C@@H](Cc1c[nH]cn1)C(=O)N[C@@H](CC(C)C)C(=O)N[C@@H](CC(N)=O)C(=O)N[C@@H](CO)C(=O)N[C@@H](CCSC)C(=O)N[C@@H](CCCNC(=N)N)C(=O)N[C@@H](CCCNC(=N)N)C(=O)N[C@H](C(=O)N[C@@H](CC1CCCCC1)C(=O)N[C@@H](Cc1c[nH]c2ccccc12)C(=O)N[C@@H](CC(C)C)C(=O)N[C@@H](CCCNC(=N)N)C(=O)N[C@@H](CCCCN)C(=O)N[C@@H](CCCCN)C(=O)N[C@@H](CC(C)C)C(=O)N[C@@H](CCC(N)=O)C(=O)N[C@@H](CC(=O)O)C(=O)N[C@H](C(N)=O)C(C)C)C(C)C
For B4, the IC50 came to 126 nM with PTHR-delNt (human) and 75 nM with wild-type human PTHR [1]. For the same molecule, the fold change in binding affinity vs [Ala^1,Arg^19]PTH(1-31)NH2 with PTHR-delNt (human) is less than 3 fold; in the experiment with wild-type human PTHR [2], no more than 6 fold.

B5: [Ala^1,Arg^19]hPTH(1-31)NH2 Met^18→Cha (peptide)
peptide: AVSEIQLMHNLGKHLNS[Cha]RRVEWLRKKLQDV-NH2
modifications: N-terminus assumed
SMILES: CC[C@H](C)[C@H](NC(=O)[C@H](CCC(=O)O)NC(=O)[C@H](CO)NC(=O)[C@@H](NC(=O)[C@H](C)N)C(C)C)C(=O)N[C@@H](CCC(N)=O)C(=O)N[C@@H](CC(C)C)C(=O)N[C@@H](CCSC)C(=O)N[C@@H](Cc1c[nH]cn1)C(=O)N[C@@H](CC(N)=O)C(=O)N[C@@H](CC(C)C)C(=O)NCC(=O)N[C@@H](CCCCN)C(=O)N[C@@H](Cc1c[nH]cn1)C(=O)N[C@@H](CC(C)C)C(=O)N[C@@H](CC(N)=O)C(=O)N[C@@H](CO)C(=O)N[C@@H](CC1CCCCC1)C(=O)N[C@@H](CCCNC(=N)N)C(=O)N[C@@H](CCCNC(=N)N)C(=O)N[C@H](C(=O)N[C@@H](CCC(=O)O)C(=O)N[C@@H](Cc1c[nH]c2ccccc12)C(=O)N[C@@H](CC(C)C)C(=O)N[C@@H](CCCNC(=N)N)C(=O)N[C@@H](CCCCN)C(=O)N[C@@H](CCCCN)C(=O)N[C@@H](CC(C)C)C(=O)N[C@@H](CCC(N)=O)C(=O)N[C@@H](CC(=O)O)C(=O)N[C@H](C(N)=O)C(C)C)C(C)C
As for B5, the figures for the IC50 in the experiment with PTHR-delNt (human) and in the experiment with wild-type human PTHR [1] were 408 nM and 87 nM, respectively. For the same molecule, the fold change in binding affinity vs [Ala^1,Arg^19]PTH(1-31)NH2 with PTHR-delNt (human) is less than 3 fold; with wild-type human PTHR [2], no more than 6 fold.
